Assay results: patent US20090304651A1 (published 2009)
Positions count from the first letter of the chain named. In names and notes the source's numbering stands. Where two headings read alike, the source gives them in different places. Values belong to the binder of their own block, whether it stands above or below them.

How the values were obtained:
[1] = target: T1, recombinant human IGF-II (Insulin-like Growth Factor II) (human, UniProt P01344 25-91, biotinylated (Biotinyl-IGF-II, GroPep) where immobilised in SPR, site not stated; not biotinylated in ITC and as SPR analyte); assay: SPR, steady-state KD relative to wild type
T1 construct: also called IGF2; IGF-2
T1 sequence (P01344 25-91 limits assumed): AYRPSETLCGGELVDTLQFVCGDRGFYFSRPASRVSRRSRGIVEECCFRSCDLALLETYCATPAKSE
Summary of the method: (§1)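 Duplicate 2 min injections of His-tag-purified, Pichia pastoris-secreted domain 11 proteins at 4096–8 nM (16384–32 nM for three constructs) passed over ~50 RU biotinylated IGF-II on a streptavidin Sensor Chip SA. A BIAcore 3000 ran at 25° C in HBS-EP at 40 μl/min, with blank-flow-cell and buffer-injection responses subtracted. Equilibrium responses were fitted in BIAevaluation to a steady-state affinity model to yield Kd, and relative affinity scales each value to the unaltered domain 11 protein.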

[2] = target: T1, recombinant human IGF-II (Insulin-like …); assay: ITC, IGF-II titrated into domain 11
Experimental: Calorimetric measurements were performed using a VP-ITC microcalorimeter (MicroCal). All solutions were thoroughly degassed before use by stirring under vacuum. […] The sample cell contained either wild type domain 11 (7 uM) or the E1544A mutant (8 μM), also in HBS-E buffer. To correct for the heat effects of dilution and mixing, reaction heats obtained from a control experiment, in which IGF2 was injected into HBS-E, were subtracted. Calorimetric data were analysed using MicroCal ORIGIN software (version 5.0) supplied with the instrument. Thermodynamic parameters were derived by fitting the binding isotherms to a single-site binding model. Values for dissociation affinity constants (KD) were determined from duplicate experiments.
In order to validate the SPR sensorgram data, ITC was used to assess the binding affinity between domain 11 and IGF-II. The affinity of the E1544A mutant was also assessed by ITC in order to confirm whether use of a second technique agreed as to the apparent increase in affinity (FIG. 6 and Table 6). Titrations were performed using 17×15 μl injections of 40 μM IGF-II (after an initial 7.51 injection) into the reaction cell containing wild type domain 11 or the E1544A mutant. […] The two fold differences may be simply accounted for by the fidelity of both techniques.

[3] = target: T1, recombinant human IGF-II (Insulin-like …); assay: SPR (Biacore)
[4] = target: T1, recombinant human IGF-II (Insulin-like …); assay: SPR, IGF-II immobilised, steady state
Summary of the method: as §1

[5] = target: T1, recombinant human IGF-II (Insulin-like …); assay: SPR, IGF-II immobilised, steady state; remark: listed apart in the source
Experimental: (§2) Duplicate analyte injections were performed at concentrations of 4096, 2048, 1024, 512, 256, 128, 64, 32, 16 and 8 nM.
(§3) Kinetic analysis by Surface Plasmon Resonance (SPR) was conducted on a BIAcore 3000 biosensor (BIAcore, Uppsala, Sweden) at 25° C. in HBS-EP (10 mM HEPES, pH 7.4, 150 mM NaCl, 3 mM EDTA, 0.005% surfactant P20) at a flow rate of 40 μl/min. […] Kinetic experiments consisted of a two minute injection of analyte followed by a 100 s dissociation phase in running buffer, after which the binding surface was regenerated with a 2 minute injection of 2 M MgCl₂. A blank flow cell was used for in-line reference subtraction of changes due to differences in refractive index of running buffer versus sample and a buffer-only injection was used to subtract instrument noise and drift. Injections were performed in duplicate for each concentration and in a randomised order. Kinetic parameters were determined by global fitting of sensorgrams to a two-state (conformational change) binding model using BIAevaluation software version 4.0.1. In all cases the minor component made an insignificant contribution to the overall affinity and as such only the kinetic parameters of the major binding component were used. For each interaction the dissociation affinity constant (KD) was also calculated by fitting of the response of each concentration at equilibrium to a steady-state affinity model using BIAevaluation.

[6] = target: T1, recombinant human IGF-II (Insulin-like …); assay: SPR, steady-state KD relative to wild type; remark: listed apart in the source
Experimental: as §2, §3

[7] = target: T1, recombinant human IGF-II (Insulin-like …); assay: SPR, IGF-II immobilised, kinetic fit
Summary of the method: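 Kd, together with association and dissociation rates, was determined by globally fitting blank-flow-cell- and buffer-subtracted sensorgrams in BIAevaluation 4.0.1. The sensorgrams were recorded on a BIAcore 3000 at 25° C in HBS-EP, flowing at 40 μl/min, by injecting His-tag-purified, Pichia pastoris-secreted domain 11 proteins in duplicate and in randomised order over ~50 RU biotinylated IGF-II on a streptavidin Sensor Chip SA. Each injection lasted 2 min, followed by 100 s dissociation and regeneration with 2 M MgCl₂. Analyte was run at 4096–8 nM, except for three constructs run at 16384–32 nM.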

[8] = target: T1, recombinant human IGF-II (Insulin-like …); assay: SPR, IGF-II immobilised, kinetic fit; remark: listed apart in the source
Experimental: as §2, §3

Relative Affinity [1]: 1 fold (wild type = 1.00)
Kd [2]: 150 nM
Kd [3]: 103 nM
Kd [4]: 103 nM
Kd [5]: 103 nM
Relative Affinity [6]: 1 fold (wild type = 1.00)
Kd [7]: 119 nM
koff [7]: 0.0787 s⁻¹
kon [7]: 662000 M⁻¹ s⁻¹
Kd [8]: 102 nM
koff [8]: 0.053 s⁻¹
kon [8]: 525000 M⁻¹ s⁻¹
B1: wild type IGF2R domain 11 (amino acids 1511-1650) with C-terminal His6 tag, from Pichia pastoris (receptor)
chain: NEHDDCQVTNPSTGHLFDLSSLSGRAGFTAAYSEKGLVYMSICGENENCPPGVGACFGQTRISVGKANKRLRYVDQVLQLVYKDGSPCPSKSGLSYKSVISFVCRPEAGPTNRPMLISLDKQTCTLFFSWHTPLACEQATHHHHHH
notes: also called WT; wild type domain 11

Relative Affinity [1]: 6.12 fold (wild type = 1.00)
Kd [2]: 26.4 nM
Kd [3]: 16.9 nM
Kd [4]: 16.9 nM
Kd [5]: 16.9 nM
Relative Affinity [6]: 6.12 fold (wild type = 1.00)
Kd [7]: 20.5 nM
koff [7]: 0.0406 s⁻¹
kon [7]: 2.02e+06 M⁻¹ s⁻¹
Kd [8]: 15.2 nM
koff [8]: 0.023 s⁻¹
kon [8]: 1.52e+06 M⁻¹ s⁻¹
B2: IGF2R domain 11 E1544K (amino acids 1511-1650, C-terminal His6 tag, from Pichia pastoris) (receptor)
chain: B1 chain with E34K
notes: also called enhanced mutant

Relative Affinity [1]: 2.79 fold (wild type = 1.00)
Kd [2]: 81.4 nM
Kd [3]: 37 nM
Kd [4]: 37 nM
Kd [5]: 37 nM
Relative Affinity [6]: 2.79 fold (wild type = 1.00)
Kd [7]: 45.5 nM
koff [7]: 0.0558 s⁻¹
kon [7]: 1.23e+06 M⁻¹ s⁻¹
Kd [8]: 35.9 nM
koff [8]: 0.033 s⁻¹
kon [8]: 934000 M⁻¹ s⁻¹
B3: IGF2R domain 11 E1544A (amino acids 1511-1650, C-terminal His6 tag, from Pichia pastoris) (receptor)
chain: B1 chain with E34A
